According to patent publication US20240132615A1 (ICHNOS SCIENCES, published 2024):
Each block holds one binder with its values, some of them ahead of it.

Tests used:
[1] = molecular target: T1, Biotinylated Human CD38 Protein, Avitag, His Tag (Acrobiosystems CD8-H82E7) (human, UniProt P28907 43-300, biotinylated); assay: SPR, Fab as analyte, immobilised biotinylated human CD38;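 further: biacore T200 at 25 °C, single-cycle kinetics with Fab from 7.8 to 2000 nM, 3 min association then 5 min dissociation, fitted with a 1:1 Langmuir model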
T1 construct: bought protein; also called biotinylated recombinant human CD38 protein; human CD38-avi-his
Experimental: (§1) Surface plasmon resonance (SPR) was used to measure the binding affinities of the Fab fragments for human and cynomolgus monkey CD38. Affinities were measured on a Biacore T200 instrument (Cytiva Life Sciences) at 25° C. and analyzed with the Biacore T200 Evaluation Software (v3.1).
(§2) The affinities to human and cynomolgus monkey CD38 were assessed by immobilizing CD38 and using Fab fragments as analyte. […] Fab fragments were injected in single cycle kinetic at different concentrations ranging from 7.8 to 2000 nM, in HBS-EP+ buffer (Cytiva Life Sciences, catalog NO: BR100669) at a flow rate of 30 μl/min for 3 min on flow-path 1 and 2 (flow-path 1 being used as reference). Dissociation was monitored for 5 min. […] Experimental data were processed using the 1:1 Langmuir kinetic fitting model.

[2] = molecular target: T2, recombinant human CD38 antigen for crystallography (hsCD38 ECD) (human, UniProt P28907 45-300); assay: X-ray crystal structure of the complex, 3.4 Å
T2 construct: also called ectodomain of hsCD38
Experimental: The Fab/hsCD38 complex was concentrated to ˜11 mg/mL. […] Drops consisting of 1 μL protein+1 μL precipitant were set up at 20° C., and crystals appeared within 3-7 days. The resulting crystals were cryoprotected by soaking in well solution supplemented with 35% ethylene glycol, then flash cooled and stored in liquid nitrogen until data collection. Diffraction data were collected at the Swiss Light Source (SLS). […] The structure was determined by molecular replacement with Phaser.

[3] = molecular target: T3, recombinant cynomolgus monkey CD38-ECD-C-his protein (cynomolgus monkey, UniProt Q5VAN0 45-301); assay: SPR, Fab as analyte, captured cynomolgus CD38-his
T3 construct: made in house; Q5VAN0 residues 43-301 (residue 44 deleted) with C-terminal 6-His; also called cynomolgus monkey CD38-C-His; recombinant cynomolgus monkey CD38 protein
Experimental: as §1, §2

[4] = molecular target: T4, human BCMA on multiple myeloma cells (human, UniProt Q02223 1-184); assay: flow cytometry on KMS-12-BM cells; one-site binding fit
T4 construct: whole, on cells; Here the protein is the cell lines' own; also called B-cell maturation antigen; TNFRSF17
T4 sequence (looked up): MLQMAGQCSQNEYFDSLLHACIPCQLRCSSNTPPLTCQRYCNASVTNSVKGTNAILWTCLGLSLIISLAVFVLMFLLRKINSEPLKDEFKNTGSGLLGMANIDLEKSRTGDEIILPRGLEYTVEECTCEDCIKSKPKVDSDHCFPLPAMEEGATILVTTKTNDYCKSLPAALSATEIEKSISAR
Experimental: (§3) The plates were centrifuged at 350 g for 3 min at 4° C. and cells washed twice with DPBS.
(§4) Cells were resuspended in 25 μl of LIVE/DEAD Fixable Near-IR Dead Cell Stain (ThermoFisher Scientific, L34976) diluted at 1/1′000 in DPBS and incubated 20 min at 4° C. […] Cells were then washed twice and resuspended in 25 μl of FACS buffer with azide. Samples were acquired on an iQue Screener Plus instrument (IntelliCyt). Cells were gated based on size on FSC vs SSC and debris, doublets and dead cells were excluded. Population was analyzed for APC-geometric mean (geomean) fluorescence intensity (MFI) using iQue Forecyt® software. Only samples showing at least 2′000 cells in final gate were considered in the further steps of the analysis. Relative geometric mean fluorescence intensity (RFI) was calculated by subtracting the MFI of the negative control from the MFI of the sample at each dilution. RFI values were finally plotted using Prism software (GraphPad). Equilibrium dissociation constant values (KD) and maximum binding were determined by using one-site binding curve fitting on non-transformed data (Prism).

[5] = molecular target: T4, human BCMA on multiple myeloma cells; assay: flow cytometry on NCI-H929 CD38 KO cells (BCMA++CD38-), anti-human IgG secondary, RFI
Experimental: as §3, §4

[6] = molecular target: T5, human CD3 on primary human T cells (human, UniProt P07766 23-207; P04234 22-171; P09693 23-182; P20963 22-164); assay: flow cytometry on isolated human primary T cells gated CD38-negative; one-site binding fit
T5 construct: whole, on cells; Endogenous CD3 complex on isolated human T cells, gated CD38-negative; also called CD3-expressing T cells; human CD38 negative T cells
Experimental: Cells were thawed in pre-warmed complete RPMI medium (RPMI supplemented with 10% heat inactivated fetal calf serum, 1% L-Glutamine, 1% Non-essential Amino Acids, 1% Sodium Pyruvate, and 1% Penicillin/Streptomycin) and rested overnight at 1.5×10⁶ cells/ml. Cells were plated at 1×10⁵ cells/well in 96-well round-bottom plates. The plates were centrifuged at 350 g for 3 min at 4° C. and cells washed twice with DPBS. Cells were resuspended in 25 μl of LIVE/DEAD Fixable Near-IR Dead Cell Stain (ThermoFisher Scientific, L34976) diluted at 1/1′000 in DPBS and incubated 20 min at 4° C. […] Cells were then washed twice and resuspended in 25 μl of FACS buffer with azide. Samples were acquired on an iQue Screener Plus instrument (IntelliCyt). Cells were gated based on size on FSC vs SSC and debris, doublets and dead cells were excluded. Finally, viable cells were gated on CD38-T cells. The population was analyzed for PE-geometric mean (geomean) fluorescence intensity (MFI) using iQue Forecyt© software. Only samples showing at least 2′000 cells in final gate were considered in the further steps of the analysis. Relative geometric mean fluorescence intensity (RFI) was calculated per donor by subtracting the mean of MFI of the negative control from the MFI of the sample at each dilution. RFI values were finally plotted using Prism software (GraphPad). Equilibrium dissociation constant values (KD) and maximum binding were determined by using one-site binding curve fitting on non-transformed data (Prism). […] Two independent experiments were performed.

[7] = molecular target: T4, human BCMA on multiple myeloma cells; assay: flow cytometry on NCI-H929 CD38 KO cells; one-site binding fit
Experimental: as §3, §4

[8] = molecular target: T4, human BCMA on multiple myeloma cells; assay: flow cytometry on NCI-H929 cells (BCMA++CD38++), anti-human IgG secondary, RFI
Experimental: as §3, §4

[9] = molecular target: T4, human BCMA on multiple myeloma cells; assay: flow cytometry on NCI-H929 WT cells; one-site binding fit
Experimental: as §3, §4

[10] = molecular target: T4, human BCMA on multiple myeloma cells; assay: flow cytometry on KMS-12-BM cells (BCMA+CD38+), anti-human IgG secondary, RFI
Experimental: as §3, §4

[11] = molecular target: T6, human CD38 on multiple myeloma cells (human, UniProt P28907 1-300); assay: flow cytometry on NCI-H929 BCMA KO cells (BCMA-CD38++), anti-human IgG secondary, RFI
T6 construct: whole, on cells; Here the protein is the cell lines' own
Experimental: as §3, §4

[12] = molecular target: T4, human BCMA on multiple myeloma cells; assay: flow cytometry on MOLP-8 cells; one-site binding fit
[13] = molecular target: T5, human CD3 on primary human T cells; assay: flow cytometry on isolated human T cells (CD38-negative gate), anti-human IgG secondary, relative fluorescence (RFI)
[14] = molecular target: T7, human CD3 on primary human CD38-negative T cells (human, UniProt P07766 23-207; P04234 22-171; P09693 23-182); assay: flow cytometry on CD38-negative primary human T cells, RFI after subtraction of the negative control, six donors
T7 construct: whole, on cells; Native CD3 within the TCR/CD3 complex on isolated human T cells, gated CD38-negative
Experimental: Cells were thawed in pre-warmed complete RPMI medium (RPMI supplemented with 10% heat inactivated fetal calf serum, 1% L-Glutamine, 1% Non-essential Amino Acids, 1% Sodium Pyruvate, and 1% Penicillin/Streptomycin) and rested overnight at 2 ×10⁶ cells/ml. Cells were plated at 1×10⁵ cells/well in a 96-well round-bottom plate. […] Cells were incubated for 30 min at 4° C. Cells were then washed twice and resuspended in 50 μl of FACS buffer containing SYTOX Blue dead cell stain (ThermoFisher Scientific, S34857) diluted 1/2000. Samples were acquired on an iQue Screener Plus instrument (IntelliCyt). Cells were gated based on size on FSC vs SSC and debris and doublets were excluded. Finally, viable cells were gated on CD38-T cells. This population was analyzed for AlexaFluor647-geometric mean (geomean) fluorescence intensity using iQue Forecyt® software. Only samples showing at least 200 cells in final gate were considered in the further steps of the analysis. Relative geomean fluorescence intensity (RFI) was calculated by subtracting fluorescence of negative control (CD3/BCMA/CD38_085) to fluorescence of treatments at each dilution. Relative geomean fluorescence intensity values were finally plotted using Prism software (GraphPad). Equilibrium dissociation constant values (KD) and maximum binding were determined by using one-site binding curve fitting on non-transformed data (Prism).

[15] = molecular target: T7, human CD3 on primary human …; assay: flow cytometry on primary human CD38-negative T cells, one-site binding fit
Experimental: Human PBMC were harvested from buffy coats/apheresis filters obtained from La Chaux-de-Fonds/Bern (Switzerland) Transfusion Center using Ficoll® density gradient isolation. […] Cells were thawed in pre-warmed complete RPMI medium (RPMI supplemented with 10% heat inactivated fetal calf serum, 1% L-Glutamine, 1% Non-essential Amino Acids, 1% Sodium Pyruvate, and 1% Penicillin/Streptomycin) and rested overnight at 2 ×10⁶ cells/ml. Cells were plated at 1×10⁵ cells/well in a 96-well round-bottom plate. […] Cells were incubated for 30 min at 4° C. Cells were then washed twice and resuspended in 50 μl of FACS buffer containing SYTOX Blue dead cell stain (ThermoFisher Scientific, S34857) diluted 1/2000. Samples were acquired on an iQue Screener Plus instrument (IntelliCyt). Cells were gated based on size on FSC vs SSC and debris and doublets were excluded. Finally, viable cells were gated on CD38-T cells. This population was analyzed for AlexaFluor647-geometric mean (geomean) fluorescence intensity using iQue Forecyt® software. Only samples showing at least 200 cells in final gate were considered in the further steps of the analysis. Relative geomean fluorescence intensity (RFI) was calculated by subtracting fluorescence of negative control (CD3/BCMA/CD38_085) to fluorescence of treatments at each dilution. Relative geomean fluorescence intensity values were finally plotted using Prism software (GraphPad). Equilibrium dissociation constant values (KD) and maximum binding were determined by using one-site binding curve fitting on non-transformed data (Prism).

T5 sequence (P07766 23-207, chain 1 of 4): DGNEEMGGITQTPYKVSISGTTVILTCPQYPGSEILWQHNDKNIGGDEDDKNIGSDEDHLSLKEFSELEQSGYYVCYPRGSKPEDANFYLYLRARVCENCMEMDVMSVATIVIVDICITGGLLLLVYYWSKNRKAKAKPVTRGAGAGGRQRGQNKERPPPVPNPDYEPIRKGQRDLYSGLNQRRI
T5 sequence (P04234 22-171, chain 2 of 4): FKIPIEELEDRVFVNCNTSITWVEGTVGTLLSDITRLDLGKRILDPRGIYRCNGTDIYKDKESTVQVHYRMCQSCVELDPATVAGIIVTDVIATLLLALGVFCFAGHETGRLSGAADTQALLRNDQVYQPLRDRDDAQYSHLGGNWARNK
T5 sequence (P09693 23-182, chain 3 of 4): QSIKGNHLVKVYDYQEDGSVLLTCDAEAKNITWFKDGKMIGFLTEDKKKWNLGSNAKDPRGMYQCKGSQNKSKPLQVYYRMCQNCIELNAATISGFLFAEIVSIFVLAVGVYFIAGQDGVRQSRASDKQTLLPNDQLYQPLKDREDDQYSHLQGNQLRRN
T5 sequence (P20963 22-164, chain 4 of 4): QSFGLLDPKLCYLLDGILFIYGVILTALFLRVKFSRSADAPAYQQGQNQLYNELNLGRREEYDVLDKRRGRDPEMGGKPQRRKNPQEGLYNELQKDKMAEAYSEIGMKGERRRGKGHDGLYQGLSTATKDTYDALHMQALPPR
T7 sequence (P07766 23-207, chain 1 of 3): as the sequence (P07766 23-207, chain 1 of 4) above
T7 sequence (P04234 22-171, chain 2 of 3): as the sequence (P04234 22-171, chain 2 of 4) above
T7 sequence (P09693 23-182, chain 3 of 3): as the sequence (P09693 23-182, chain 3 of 4) above

Kd [1]: 115 nM
binding result [2]: binds
Kd [3]: 170 nM
B1: Anti-CD38-UCP03-B3 FAB (Fab, V domains shown)
VH: QVQLVQSGAEVKKPGSSVKVSCKASGGDFTLYSISWVRQAPGQGLEWMGRIIPTGANANYAQKFQGRVTITADESTSTAYMELSSLRSEDTAVYYCARSWPSLGSGWFDIWGQGTLVTVSS
VL: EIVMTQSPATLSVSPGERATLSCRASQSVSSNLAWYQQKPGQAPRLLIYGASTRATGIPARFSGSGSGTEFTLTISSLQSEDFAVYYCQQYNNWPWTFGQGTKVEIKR
notes: Fab; also called anti-CD38-B3; anti-CD38-B3 Fab

Kd [4]: 3.9 nM
EC50 (read off the curve) [5]: ~7 nM
Kd [6]: 252 nM
Kd [7]: 8.1 nM
EC50 (read off the curve) [8]: ~6 nM
Kd [9]: 6 nM
EC50 (read off the curve) [10]: ~3 nM
B2: alnuctamab (bispecific antibody)
chain 1: EVQLLESGGGLVQPGGSLRLSCAASGFTFSDNAMGWVRQAPGKGLEWVSAISGPGSSTYYADSVKGRFTISRDNSKNTLYLQMNSLRAEDTAVYYCAKVLGWFDYWGQGTLVTVSSASTKGPSVFPLAPSSKSTSGGTAALGCLVEDYFPEPVTVSWNSGALTSGVHTFPAVLQSSGLYSLSSVVTVPSSSLGTQTYICNVNHKPSNTKVDEKVEPKSCDKTHTCPPCPAPEAAGGPSVFLFPPKPKDTLMISRTPEVTCVVVDVSHEDPEVKFNWYVDGVEVHNAKTKPREEQYNSTYRVVSVLTVLHQDWLNGKEYKCKVSNKALGAPIEKTISKAKGQPREPQVCTLPPSRDELTKNQVSLSCAVKGFYPSDIAVEWESNGQPENNYKTTPPVLDSDGSFFLVSKLTVDKSRWQQGNVFSCSVMHEALHNHYTQKSLSLSPGK
chain 2: EIVLTQSPGTLSLSPGERATLSCRASQSVSDEYLSWYQQKPGQAPRLLIHSASTRATGIPDRFSGSGSGTDFTLAISRLEPEDFAVYYCQQYGYPPDFTFGQGTKVEIKRTVAAPSVFIFPPSDRKLKSGTASVVCLLNNFYPREAKVQWKVDNALQSGNSQESVTEQDSKDSTYSLSSTLTLSKADYEKHKVYACEVTHQGLSSPVTKSFNRGEC
chain 3: not shown
chain 4: EVQLLESGGGLVQPGGSLRLSCAASGFTFSTYAMNWVRQAPGKGLEWVSRIRSKYNNYATYYADSVKGRFTISRDDSKNTLYLQMNSLRAEDTAVYYCVRHGNFGNSYVSWFAYWGQGTLVTVSSASVAAPSVFIFPPSDEQLKSGTASVVCLLNNFYPREAKVQWKVDNALQSGNSQESVTEQDSKDSTYSLSSTLTLSKADYEKHKVYACEVTHQGLSSPVTKSFNRGEC

binding result [11]: no binding (tested: 800 nM)
Kd [6]: 155 nM
B3: 83A10-TCBcv (bispecific antibody, human IgG1, kappa, L234A L235A)
chain 1: not shown
chain 2: not shown
chain 3: not shown
chain 4: B2 chain 4
notes: Comparator CD3xBCMA bispecific antibody; also called CD3 x BCMA benchmark

Kd [4]: 21.8 nM
Kd [12]: 95.8 nM
EC50 (read off the curve) [5]: ~40 nM
Kd [6]: 18 nM
Kd [7]: 46.3 nM
EC50 (read off the curve) [8]: ~30 nM
EC50 (read off the curve) [13]: ~20 nM
Kd [9]: 30.4 nM
EC50 (read off the curve) [10]: ~20 nM
B4: teclistamab (bispecific antibody)
chain 1: not shown
chain 2: SYVLTQPPSVSVAPGQTARITCGGNNIGSKSVHWYQQPPGQAPVVVVYDDSDRPSGIPERFSGSNSGNTATLTISRVEAGDEAVYYCQVWDSSSDHVVFGGGTKLTVLGQPKAAPSVTLFPPSSEELQANKATLVCLISDFYPGAVTVAWKGDSSPVKAGVETTTPSKQSNNKYAASSYLSLTPEQWKSHRSYSCQVTHEGSTVEKTVAPTECS
chain 3: EVQLVESGGGLVQPGGSLRLSCAASGFTFNTYAMNWVRQAPGKGLEWVARIRSKYNNYATYYAASVKGRFTISRDDSKNSLYLQMNSLKTEDTAVYYCARHGNFGNSYVSWFAYWGQGTLVTVSSASTKGPSVFPLAPCSRSTSESTAALGCLVKDYFPEPVTVSWNSGALTSGVHTFPAVLQSSGLYSLSSVVTVPSSSLGTKTYTCNVDHKPSNTKVDKRVESKYGPPCPPCPAPEAAGGPSVFLFPPKPKDTLMISRTPEVTCVVVDVSQEDPEVQFNWYVDGVEVHNAKTKPREEQFNSTYRVVSVLTVLHQDWLNGKEYKCKVSNKGLPSSIEKTISKAKGQPREPQVYTLPPSQEEMTKNQVSLTCLVKGFYPSDIAVEWESNGQPENNYKTTPPVLDSDGSFLLYSKLTVDKSRWQEGNVFSCSVMHEALHNHYTQKSLSLSLGK
chain 4: QTVVTQEPSLTVSPGGTVTLTCRSSTGAVTTSNYANWVQQKPGQAPRGLIGGTNKRAPGTPARFSGSLLGGKAALTLSGVQPEDEAEYYCALWYSNLWVFGGGTKLTVLGQPKAAPSVTLFPPSSEELQANKATLVCLISDFYPGAVTVAWKADSSPVKAGVETTTPSKQSNNKYAASSYLSLTPEQWKSHRSYSCQVTHEGSTVEKTVAPTECS

binding result [14]: no binding (tested: 800 nM)
Max binding (RFI) [15]: 60 RFI
B5: TNB-F2B BEAT Fc (bispecific antibody, human IgG1, kappa, L234A L235A)
chain 1: EVQLVESGGGLVQPGRSLRLSCAASGFTFDDYAMHWVRQAPGKGLEWVSGISWNSGSIGYADSVKGRFTISRDNAKNSLYLQMNSLRAEDTALYYCAKDSRGYGDYRLGGAYWGQGTLVTVSSASTKGPSVFPLAPSSKSTSGGTAALGCLVKDYFPEPVTVSWNSGALTSGVHTFPAVLQSSGLYSLSSVVTVPSSSLGTQTYICNVNHKPSNTKVDKKVEPKSCDKTHTCPPCPAPEAAGGPSVFLFPPKPKDTLMISRTPEVTCVVVDVSHEDPEVKFNWYVDGVEVHNAKTKPREEQYNSTYRVVSVLTVLHQDWLNGKEYKCKVSNKALPAPIEKTISKAKGQPREPAVYTLPPSREEMTKNQVKLVCLVTGFYPSDIAVEWESSGQPENNYYTTPPMLDSDGSFSLVSWLNVDKSRWQQGNIFSCSVMHEALHNRFTQKSLSLSPG
chain 2: EVQLLESGGGLVQPGGSLRLSCAASGFTVSSYGMSWVRQAPGKGPEWVSGIRGSDGSTYYADSVKSRFTISRDNSKNTLYLQMNSLRAEDTAVYYCAKQGENDGPFDHRGQGTLVTVSSGGGGSEVQLLESGGGLVQPGGSLRLSCAASGFTVSSYGMSWVRQAPGKGPEWVSGIRGSDGSTYYADSVKSRFTISRDNSKNTLYLQMNSLRAEDTAVYYCAKQGENDGPFDHRGQGTLVTVSSGGGGTDKTHTCPPCPAPEAAGGPSVFLFPPKPKDTLMISRTPEVTCVVVDVSHEDPEVKFNWYVDGVEVHNAKTKPREEQYNSTYRVVSVLTVLHQDWLNGKEYKCKVSNKALPAPIEKTISKAKGQPREPEVATFPPSRDELTKNQVTLVCLVTGFYPSDIAVEWESNGQPENNYKTDPPLLESQGSFALSSRLRVDKSRWQQGNVFSCSVMHEALHNHYTQKSLSLSPG
light: not shown
notes: CD3 Fab (TNB-F2B) x BCMA dAb-dAb (TNB-BCMA) on a silenced (LALA) BEAT Fc; also called CD3xBCMA benchmark
